Results: IntAct's records for PubMed 22151054

B1: Myeloid leukemia factor 1 (Homo sapiens), P58340 (parent)
chain: MFRMLNSSFEDDPFFSESILAHRENMRQMIRSFSEPFGRDLLSISDGRGRAHNRRGHNDGEDSLTHTDVSSFQTMDQMVSNMRNYMQKLERNFGQLSVDPNGHSFCSSSVMTYSKIGDEPPKVFQASTQTRRAPGGIKETRKAMRDSDSGLEKMAIGHHIHDRAHVIKKSKNKKTGDEEVNQEFINMNESDAHAFDEEWQSEVLKYKPGRHNLGNTRMRSVGHENPGSRELKRREKPQQSPAIEHGRRSNVLGDKLHIKGSSVKSNKK

Variants of: B1
Settings: with 1433e_human YWHAE

effect of a mutation on the interaction	Variant
decreasing interaction	MFRMLNSSFEDDPFFSESILAHRENMRQMIRSASEPFGRDLLSISDGRGRAHNRRGHNDGEDSLTHTDVSSFQTMDQMVSNMRNYMQKLERNFGQLSVDPNGHSFCSSSVMTYSKIGDEPPKVFQASTQTRRAPGGIKETRKAMRDSDSGLEKMAIGHHIHDRAHVIKKSKNKKTGDEEVNQEFINMNESDAHAFDEEWQSEVLKYKPGRHNLGNTRMRSVGHENPGSRELKRREKPQQSPAIEHGRRSNVLGDKLHIKGSSVKSNKK [F33A]
